# What was measured:
# [1] = target: Escherichia coli peptide methionine sulfoxide reductase A (E. coli) (UniProt P0A744)
# [2] = target: Escherichia coli thioredoxin reductase (E. coli) (UniProt P0A9P4)
# [3] = target: bovine pancreas insulin (bovine)
# Chain of bovine pancreas insulin (bovine) (P01317 25-54, chain 1 of 2): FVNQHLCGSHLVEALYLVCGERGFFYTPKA
# Chain of bovine pancreas insulin (bovine) (P01317 85-105, chain 2 of 2): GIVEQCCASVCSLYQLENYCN
# Chain of Escherichia coli peptide methionine sulfoxide reductase A (E. coli) (P0A744 2-212): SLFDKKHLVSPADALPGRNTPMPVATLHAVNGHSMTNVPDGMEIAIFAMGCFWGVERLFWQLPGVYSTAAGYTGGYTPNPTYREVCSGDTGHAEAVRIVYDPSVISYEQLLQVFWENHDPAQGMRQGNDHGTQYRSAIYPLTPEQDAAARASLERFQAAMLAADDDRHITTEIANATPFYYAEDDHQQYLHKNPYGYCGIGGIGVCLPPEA
# Chain of Escherichia coli thioredoxin reductase (E. coli) (P0A9P4 2-321): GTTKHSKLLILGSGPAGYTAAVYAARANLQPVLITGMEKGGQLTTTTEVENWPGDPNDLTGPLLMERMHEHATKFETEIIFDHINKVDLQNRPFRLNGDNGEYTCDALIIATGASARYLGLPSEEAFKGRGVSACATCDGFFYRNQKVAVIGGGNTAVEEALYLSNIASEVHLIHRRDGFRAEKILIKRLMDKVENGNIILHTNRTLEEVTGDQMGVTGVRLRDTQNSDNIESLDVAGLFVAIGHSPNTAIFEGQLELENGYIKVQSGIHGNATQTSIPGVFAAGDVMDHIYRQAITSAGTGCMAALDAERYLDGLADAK
binder,measurement,setting,value
human thioredoxin (enzyme) MVKQIESKTAFQEALDAAGDKLVVVDFSATWCGPCKMIKPFFHSLSEKYSNVIFLEVDVDDCQDVASECEVKCMPTFQFFKKGQKVGEFSGANKEKLEATINELV,"k1: rate constant of Trx–MsrA mixed disulfide formation (stopped-flow fluorescence, 1 μM oxidized MsrA, 5-100 μM reduced Trx, pH 7.0, 25 °C)",[1],221000 M^−1 s^−1
same,"k2: rate constant of mixed disulfide dissociation to reduced MsrA and oxidized Trx (stopped-flow fluorescence, pH 7.0, 25 °C)",[1],3.63 s^−1
same,"Catalytic activity of S-MetO reduction by NADPH (Vi/[Trx]) in the reconstituted NADPH/TrxR/Trx/MsrA chain (4.5 μM TrxR, 4.5 μM MsrA, 0.1-1.0 μM Trx, pH 7.0, 25 °C)",[2],0.22 min^−1
same,"Specific insulin reductase activity (0.13 mM insulin, 1 mM DTT, 0.5-2.0 μM Trx, onset of aggregation at OD650, pH 7.0, 25 °C)",[3],0.155 min^−1 μM^−1
